Results on two molecules are retold here after article PMC4109836, “Analysis of the co-operative interaction between the allosterically regulated proteins GK and GKRP using tryptophan fluorescence” (Biochemical Journal, 2014).

Assay [1] deals with T1, hGKRP (0.3 μM)–GK-W99R/W167F/W257F (1 μM) complex, GKRP-WT (Homo sapiens, UniProt P35557+Q14397, W167F/W257F/W99R).
T1 construct: FLAG; GST (cleaved yes); made in house; host or cells: Escherichia coli
T1 sequence (Q14397 1-625): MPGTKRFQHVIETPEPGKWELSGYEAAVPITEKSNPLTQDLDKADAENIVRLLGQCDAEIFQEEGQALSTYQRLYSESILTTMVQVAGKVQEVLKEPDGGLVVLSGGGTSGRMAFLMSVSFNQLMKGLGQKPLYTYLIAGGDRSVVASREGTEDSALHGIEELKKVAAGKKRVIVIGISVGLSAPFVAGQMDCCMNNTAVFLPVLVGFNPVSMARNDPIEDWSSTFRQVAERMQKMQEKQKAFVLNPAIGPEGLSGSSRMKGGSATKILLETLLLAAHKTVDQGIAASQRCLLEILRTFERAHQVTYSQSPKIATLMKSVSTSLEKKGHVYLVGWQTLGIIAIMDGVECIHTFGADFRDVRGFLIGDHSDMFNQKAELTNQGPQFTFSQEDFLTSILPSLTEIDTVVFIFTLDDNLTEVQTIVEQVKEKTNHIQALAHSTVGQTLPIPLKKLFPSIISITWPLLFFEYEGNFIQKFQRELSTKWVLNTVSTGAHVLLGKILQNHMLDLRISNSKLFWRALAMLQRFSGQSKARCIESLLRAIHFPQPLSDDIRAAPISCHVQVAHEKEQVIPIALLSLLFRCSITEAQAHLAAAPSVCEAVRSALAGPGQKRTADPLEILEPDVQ
T1 sequence (P35557 1-465 W99R/W167F/W257F): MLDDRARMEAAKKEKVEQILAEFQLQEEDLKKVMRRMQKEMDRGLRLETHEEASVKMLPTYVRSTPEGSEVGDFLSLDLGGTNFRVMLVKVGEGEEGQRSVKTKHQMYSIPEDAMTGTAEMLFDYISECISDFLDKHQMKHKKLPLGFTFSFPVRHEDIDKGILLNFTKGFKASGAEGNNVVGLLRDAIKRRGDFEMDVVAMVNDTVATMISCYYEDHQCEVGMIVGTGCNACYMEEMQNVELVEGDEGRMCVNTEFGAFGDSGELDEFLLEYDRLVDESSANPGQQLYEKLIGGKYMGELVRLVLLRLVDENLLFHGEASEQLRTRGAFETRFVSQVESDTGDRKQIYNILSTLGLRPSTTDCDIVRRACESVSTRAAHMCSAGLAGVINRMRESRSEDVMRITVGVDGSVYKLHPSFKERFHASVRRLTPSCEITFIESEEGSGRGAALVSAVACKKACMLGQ
The experiment in a line: Ligand binding by / disassembly of GKRP-WT–GK-W99R/W167F/W257F complex by TF of hGKRP. The protocol:
Spectra were measured with a Fluorolog-3-21 Jobin-Yvon Spex Instrument SA equipped with a 450 W Xenon lamp for excitation and a cooled R2658P Hamamatsu photomultiplier tube for detection. For all measurements, 90° geometry was employed and 295 nm excitation wavelengths were used to observe fluorescence emission in the 300–500 nm range. For TF, spectra slit width was set to provide a bandpath of 3 nm for excitation and 3 nm for emission. Spectra were corrected for instrumental response using Spex instrument software. A thermostatically controlled cell holder maintained sample temperature at 20°C. A thermocoupler was used to measure sample temperature. The buffer used contained 20 mM phosphate, 50 mM KCl, 1 mM EDTA and 1 mM DTT (pH 7.2).
Fluorescence data were obtained via the stepwise addition of the appropriate amount of non-fluorescent GK-W99R/W167F/W257F to GKRP in a fluorescence cuvette. […] The change in GKRP protein fluorescence during titration was also measured using time-dependent scans. A manual procedure was used such that a typical titration with 10–12 additions required 20–25 min to perform. The same buffer as described above was routinely used unless stated otherwise. The bandpath was 0.5 nm at 295 nm for excitation and 12 nm at 340 nm for emission. […] For some graphical presentations the linear form of the Hill equation was used: log[F/(Fsat−F)]=H log x−H log KD [46].

The next assay addresses T2, GKRP-WT (Homo sapiens, UniProt P35557+Q14397, W167F/W257F/W99R).
T2 construct: FLAG; GST (cleaved yes); made in house; host or cells: Escherichia coli
T2 sequence (Q14397 1-625): T1 sequence (Q14397 1-625)
T2 sequence (P35557 1-465 W99R/W167F/W257F): T1 sequence (P35557 1-465 W99R/W167F/W257F)
The experiment in a line: Titration of GKRP-WT with GK-W99R/W167F/W257F (GK–GKRP complex assembly) by TF.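 On all read-outs here: tryptophan fluorescence of GKRP titrated with GK, excitation 295 nm, emission read at 340 nm, phosphate buffer pH 7.2, Hill equation fitting.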 The class given is binding. Particulars: for Kd: read-out: S0.5 of GK.

Setting [2] is: addition of 6.6 mM D-glucose, 0.3 μM GKRP and 1 μM GK, pH 7.2, mono ExpDecay fit.
Where [3] appears, read: ligand titration of 3:1 GK–GKRP-WT complex, 20°C.
Setting [4] is: GK titration with 20 μM GKA, 20°C.
Where [5] appears, read: GK titration with 500 μM F1P, 20°C.
The mark [6] stands for this setting: GK titration with 500 μM F6P, sigmoidal fit, 20°C.
The mark [7] stands for this setting: GK titration with 500 μM F6P, simple saturation fit (H = 1).
The mark [8] stands for this setting: GK titration with 100 mM D-glucose and 20 μM GKA, 20°C.
[9] abbreviates: GK titration with 100 mM D-glucose and 500 μM F1P, 20°C.
Where [10] appears, read: GK titration with 100 mM D-glucose and 500 μM F6P, 20°C.
Where [11] appears, read: GK titration with 100 mM D-glucose, 20°C.
Where [12] appears, read: GK titration, no further agent, sigmoidal fit, 20°C.
[13] abbreviates: GK titration, no further agent, simple saturation fit (H = 1).

Where two headings read alike, the source gives them in different places.

`OC[C@H]1OC(O)[C@H](O)[C@@H](O)[C@@H]1O` (stereo partly drawn) [D-Glucose, D-glucose]: in assay [1] (setting [2]), the “A (amplitude) of time-dependent decrease in GKRP-WT TF” value was found to be 0.04 and the “τ of time-dependent decrease in GKRP-WT TF” value came out at 11 s. For the same molecule, in assay [1] (setting [3]), the H is on record as 1 and the “ΔF (relative fluorescence change at 340 nm)” value is reported as −0.065. For the same molecule, in assay [1] (ligand titration of 3:1 GK–GKRP-WT complex, 20°C, read-out: Kd (apparent)), the Kd worked out at 12000 µM.

B1: GK-W99R/W167F/W257F: tryptophan residue-free, non-fluorescent recombinant human β-cell GK made for the present study (protein)
chain: T1 sequence (P35557 1-465 W99R/W167F/W257F)
modifications: left off: GST, end not stated, cleaved
notes: tryptophan residue-free, non-fluorescent recombinant human β-cell GK made for the present study
As for B1, the H was determined as 3.4 in the assay with GKRP-WT (setting [4]); 2.8 with GKRP-WT (setting [5]); 1.71 with GKRP-WT (setting [6]); 1 in the assay with GKRP-WT (GK titration with 500 μM F6P, simple saturation fit); 3.2 with GKRP-WT (setting [8]); 2.25 with GKRP-WT (setting [9]). For the same molecule, the H in the assay with GKRP-WT (setting [10]) worked out at 2.83; with GKRP-WT (setting [11]) it was 2.78; with GKRP-WT (setting [12]) it was 1.74; with GKRP-WT (GK titration, no further agent, simple saturation fit), 1. Also, the ΔF was 0.42 with GKRP-WT (setting [4]); 0.32 in the assay with GKRP-WT (setting [5]); 0.31 in the assay with GKRP-WT (setting [6]); 0.43 in the assay with GKRP-WT (setting [7]); 0.42 with GKRP-WT (setting [8]); 0.35 with GKRP-WT (setting [10]). Also, the ΔF with GKRP-WT (setting [11]) amounted to 0.42; with GKRP-WT (setting [12]) it was 0.29; with GKRP-WT (setting [13]) it was 0.39. In addition, the Kd with GKRP-WT (setting [4]) worked out at 2.77 µM; in the assay with GKRP-WT (setting [5]), 2.68 µM; with GKRP-WT (setting [6]), 1.2 µM; with GKRP-WT (setting [7]) it was 1.84 µM; with GKRP-WT (setting [8]), 4.75 µM; with GKRP-WT (setting [9]), 3.3 µM. Besides, the Kd in the assay with GKRP-WT (setting [10]) was 2.43 µM; with GKRP-WT (setting [11]) it was 2.56 µM; in the assay with GKRP-WT (GK titration, no further agent, sigmoidal fit, 20°C, listed as GK), about 1.2 µM; with GKRP-WT (setting [12]), 1.22 µM; with GKRP-WT (setting [13]), 1.85 µM. Also, the “maximal ΔTF value of GKRP-WT” value with GKRP-WT (range depending on the assay conditions) was 0.29–0.42. Moreover, the “increase of the TF of GKRP-WT” value with GKRP-WT (saturating GK (5 μM), 0.3 μM GKRP) was 29%. Also, in the assay with GKRP-WT (with and without F6P), the “S0.5 value of GK with GKRP-WT lower than with GKRP-P446L (on average)” value is 35%.
